Assays:
[1] = target: T1, human LINGO-1-ΔLRR-Fc (Igleader-hsLINGO-1-ΔLRR-Fc) (human, UniProt Q96FE5 40-556); assay: ELISA, captured Fc fusion protein
T1 construct: Heterologous secretion signal left out; also called human LINGO-1 lacking the LRR domain
T1 sequence: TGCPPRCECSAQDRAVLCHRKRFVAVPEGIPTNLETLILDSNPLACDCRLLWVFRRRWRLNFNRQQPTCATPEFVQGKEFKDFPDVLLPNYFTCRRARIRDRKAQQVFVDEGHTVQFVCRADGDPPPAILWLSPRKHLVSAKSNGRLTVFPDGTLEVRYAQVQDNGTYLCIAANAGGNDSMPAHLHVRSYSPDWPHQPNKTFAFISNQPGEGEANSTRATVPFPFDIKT

[2] = target: T2, human NgR-Fc fusion protein (R&D Systems) (human, UniProt Q9BZR6 27-447, limits assumed); assay: ELISA, captured Fc fusion protein
T2 construct: Commercial protein; also called captured human NgR-Fc; not shown: Fc part of the commercial fusion protein; not described
T2 sequence (looked up): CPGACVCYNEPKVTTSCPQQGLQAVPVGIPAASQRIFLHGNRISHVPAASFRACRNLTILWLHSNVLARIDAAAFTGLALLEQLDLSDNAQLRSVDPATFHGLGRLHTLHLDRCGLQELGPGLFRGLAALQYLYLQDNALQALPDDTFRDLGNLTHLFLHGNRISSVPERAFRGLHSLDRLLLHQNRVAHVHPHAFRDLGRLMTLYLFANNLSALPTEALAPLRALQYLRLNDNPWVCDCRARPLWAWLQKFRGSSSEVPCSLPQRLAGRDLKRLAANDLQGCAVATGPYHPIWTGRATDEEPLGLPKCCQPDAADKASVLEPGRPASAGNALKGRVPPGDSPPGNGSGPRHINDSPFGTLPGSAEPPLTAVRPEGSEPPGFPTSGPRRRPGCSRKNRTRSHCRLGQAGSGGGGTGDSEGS

[3] = target: human LINGO-1 expressed on CHO-K1 cells (CHO-K1-hLINGO-1) (human) (UniProt Q96FE5); assay: apparent KD, FACS saturation binding on CHO-K1-hLINGO-1 cells, Fab format
[4] = target: T3, rat LINGO-1 expressed on CHO-K1 cells (CHO-K1-rLINGO-1) (rat, UniProt A0A8I5ZPI2 34-614); assay: apparent KD, FACS saturation binding on CHO-K1-rLINGO-1 cells, Fab format
T3 construct: range 34-614; not shown: 2 amino acid residue linker
T3 sequence: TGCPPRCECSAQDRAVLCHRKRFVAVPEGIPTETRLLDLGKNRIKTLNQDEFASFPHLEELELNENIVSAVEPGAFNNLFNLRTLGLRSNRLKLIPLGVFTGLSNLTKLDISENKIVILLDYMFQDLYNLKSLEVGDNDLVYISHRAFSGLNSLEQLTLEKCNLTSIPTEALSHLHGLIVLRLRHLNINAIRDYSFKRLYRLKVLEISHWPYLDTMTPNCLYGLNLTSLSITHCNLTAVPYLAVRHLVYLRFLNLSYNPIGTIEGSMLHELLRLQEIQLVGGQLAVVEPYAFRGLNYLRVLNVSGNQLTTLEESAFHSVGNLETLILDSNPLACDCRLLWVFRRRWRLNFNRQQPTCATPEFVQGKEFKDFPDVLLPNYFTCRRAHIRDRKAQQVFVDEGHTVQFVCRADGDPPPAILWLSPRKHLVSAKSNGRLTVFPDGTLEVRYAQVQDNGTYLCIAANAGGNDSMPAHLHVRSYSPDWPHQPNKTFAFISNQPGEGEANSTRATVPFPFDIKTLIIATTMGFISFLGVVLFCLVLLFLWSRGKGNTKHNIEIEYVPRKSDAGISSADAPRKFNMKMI
Description: (§1) Cell based affinity of anti-LINGO-1 specific antibodies is determined by FACS saturation binding experiments. […] Otherwise the staining procedure is done identical to the FACS staining procedure described above.
(§2) In detail, CHO-K1-hLINGO-1, CHO-K1-cmLINGO-1 or CHO-K1-rLINGO-1 are detached from culture flasks by versene, washed with FACS buffer and resuspended in FACS buffer. Purified anti-LINGO-1 Fabs are serially diluted in FACS buffer and spread into round bottom 96-well microtiter plates (NUNC™, Wiesbaden, Germany). For each concentration, duplicate wells are incubated with 1.25×10⁴ cells for 30-60 min on ice in a total volume of 100 μl.

[5] = target: T4, cynomolgus monkey LINGO-1 expressed on CHO-K1 cells (CHO-K1-cmLINGO-1) (cynomolgus monkey, UniProt Q9N008 34-614); assay: apparent KD, FACS saturation binding on CHO-K1-cmLINGO-1 cells, Fab format
T4 construct: range 34-614; also called Cynomolgus LINGO-1; not shown: 2 amino acid residue linker
T4 sequence (looked up): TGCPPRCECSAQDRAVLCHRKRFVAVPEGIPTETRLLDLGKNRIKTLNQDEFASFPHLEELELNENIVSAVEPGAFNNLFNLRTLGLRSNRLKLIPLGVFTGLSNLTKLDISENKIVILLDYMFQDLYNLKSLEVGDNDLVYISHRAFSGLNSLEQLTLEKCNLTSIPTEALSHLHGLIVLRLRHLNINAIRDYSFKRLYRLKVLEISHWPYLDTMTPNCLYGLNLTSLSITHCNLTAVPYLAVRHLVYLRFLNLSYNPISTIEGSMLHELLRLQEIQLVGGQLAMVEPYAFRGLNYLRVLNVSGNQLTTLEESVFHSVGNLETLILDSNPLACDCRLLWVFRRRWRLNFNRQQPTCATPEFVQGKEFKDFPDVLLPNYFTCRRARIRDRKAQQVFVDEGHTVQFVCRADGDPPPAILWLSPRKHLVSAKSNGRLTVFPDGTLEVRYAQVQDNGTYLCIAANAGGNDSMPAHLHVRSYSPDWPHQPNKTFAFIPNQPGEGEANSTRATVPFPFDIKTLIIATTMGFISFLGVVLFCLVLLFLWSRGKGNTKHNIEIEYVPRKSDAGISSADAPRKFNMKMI
Description: as §1, §2

Unrelated Fc = assay: ELISA, Fc fusion captured via goat anti-human IgG Fc, Fab detected with AP-conjugated secondary and AttoPhos
[6] = target: T1, human LINGO-1-ΔLRR-Fc …; assay: as above
[7] = target: T2, human NgR-Fc fusion protein (R&D …); assay: as above
[8] = target: T5, human LINGO-1-Fc fusion protein (natleader-hsLINGO-1-Fc) (human, UniProt Q96FE5 42-556); assay: as above
T5 construct: also called human recombinant LINGO-1-Fc; captured human LINGO-1-Fc; not shown: protein lette
T5 sequence: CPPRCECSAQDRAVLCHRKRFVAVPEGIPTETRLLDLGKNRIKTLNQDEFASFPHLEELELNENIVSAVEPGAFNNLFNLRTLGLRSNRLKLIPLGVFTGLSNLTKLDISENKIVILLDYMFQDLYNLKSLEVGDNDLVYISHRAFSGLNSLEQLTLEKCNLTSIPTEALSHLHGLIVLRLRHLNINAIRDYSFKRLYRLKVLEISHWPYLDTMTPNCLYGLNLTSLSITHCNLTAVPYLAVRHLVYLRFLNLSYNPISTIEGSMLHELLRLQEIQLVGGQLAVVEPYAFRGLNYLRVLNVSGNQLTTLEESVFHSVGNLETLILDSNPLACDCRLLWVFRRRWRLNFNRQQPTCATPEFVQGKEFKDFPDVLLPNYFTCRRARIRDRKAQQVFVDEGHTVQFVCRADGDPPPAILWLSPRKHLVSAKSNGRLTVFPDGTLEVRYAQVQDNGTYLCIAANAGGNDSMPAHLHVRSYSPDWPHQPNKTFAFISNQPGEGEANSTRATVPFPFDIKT

B1: anti-LINGO-1 Fab 4784 (Fab, V domains shown)
VH: QVQLKESGPALVKPTQTLTLTCTFSGFSLSSSGVGVGWIRQPPGKALEWLAHIGSDDDKYYSTSLKTRLTISKDTSKNQVVLTMTNMDPVDTATYYCARNQQYGDGYPGYFDYWGQGTLVTVSS
VL: DIELTQPPSVSVAPGQTARISCSGDNIGNYYVYWYQQKPGQAPVLVIYEDTNRPSGIPERFSGSNSGNTATLTISGTQAEDEADYYCQSYDNLHEQVFGGGTKLTVLG
B1 was tested, and the binding result [1] was “no binding”, the binding result [2] was “no binding” and the Kd [3] was 14.1 nM. It also gave a Kd [4] of 24 nM, a Kd [5] of 27.1 nM and a relative fluorescence units (RFU) (Unrelated Fc) of 52 RFU. The “relative fluorescence units (RFU)” value [6] was 49 RFU, the “relative fluorescence units (RFU)” value [7] was 68 RFU and the “relative fluorescence units (RFU)” value [8] was 98 RFU.

Source: patent US20140255415A1 (Novartis, published 2014)
